Reference: paper PMC3575409, “Identification of a Novel Protein-Protein Interaction Motif Mediating Interaction of GPCR-Associated Sorting Proteins with G Protein-Coupled Receptors” (PLoS ONE, 2013)
One block for each molecule: values may come before it.

How the values were obtained:
Format in all cases: binding
GST-fused ADRB1 C-tail = test: GST-pull down, ADRB1 C-tail; details: for interaction of truncated GASP-1 with ADRB1 C-tail (words): compared with full-length GASP-1
From the text: (§1) cDNAs encoding the cytoplasmic C-tail of 14 GPCRs and 2 one-transmembrane receptors were cloned into the pGEX-2T prokaryotic expression vector downstream the GST sequence. The following pGEX constructs were engineered: pGEX-DOR encoding residues 314–372 of the δ-opioid receptor (referring to Swiss-Prot accession number U10504), pGEX-MOR encoding residues 334–400 of the µ-opioid receptor (L29301), pGEX-KOR encoding residues 326–380 of the κ–opioid receptor (U17298), pGEX-ORL1 encoding residues 315–370 of the opioid receptor-like 1 (X77130), pGEX-M1 encoding residues 414–460 of the muscarinic M1 acetylcholine receptor (X52068), pGEX-M2 encoding residues 436–466 of the muscarinic M2 acetylcholine receptor (M16404), pGEX- ADRB1 encoding residues 373–477 of the β1 adrenergic receptor (J03019), pGEX-ADRB2 encoding residues 322–413 of the β2 adrenergic receptor (P07550), pGEX-CALCR encoding residues 407–490 of the calcitonin receptor (L00587), pGEX-CNR2 encoding residues 295–360 of the cannabinoid type 2 receptor (P34972), pGEX-5HT7 encoding residues 380–445 of the 5-hydroxytryptamine 7 receptor (L21195), pGEX-H2 encoding residues 284–349 of the histamine 2 receptor (S57565), pGEX-TXA2 encoding residues 304–343 of the α isoform of the thromboxane A2 receptor (D38081), pGEX-FZ4 encoding residues 493–537 of the frizzled 4 receptor (AB032417), pGEX-TGFβ encoding residues 805–849 of the type III transforming growth factor b receptor (L07594), pGEX-IGF1 encoding residues 1268–1367 of the insulin growth factor I receptor (X04434). Free GST was produced by using the pGEX-4T3 expression vector without insert. The same plasmid was used to clone the cDNA encoding a central domain of GASP-1, corresponding to amino acids 380 to 1073, downstream the GST sequence. All these plasmids were transformed into the Escherichia coli BL21 strain and expression was induced using 1mM of isopropylthiogalactoside for 2 h at 37°C. Bacteria were then pelleted, resuspended in PBS supplemented with cOmplete protease inhibitors (Roche), lysed at 1.5 kbar using a basic Z cell disrupter (constant system) and finally the lysates were cleared by centrifugation (10,000g, 15 min, 4°C).
(§2) cDNAs encoding GASP-1 and GASP-2 were cloned into the pcDNA3 eukaryotic expression vectors. cDNAs encoding GASP-3, -6, -7, and -9 were subcloned into pcDNA3.1 vectors. All the clones were controlled by DNA sequencing. The in vitro production was performed by using the TNT Quick-coupled Transcription/Translation T7 kit (Promega) in presence of [^35S]-Methionine according to the instructions from the manufacturer.
(§3) GST-fusion proteins were immobilized on glutathione-coupled Sepharose beads (GE Healthcare) for 1 h at 4°C and incubated with [^35S]-labelled in vitro translated GASP proteins or their truncated or mutated forms in ice-cold binding buffer containing: 20 mM Tris-HCl pH 7.4, 150 mM NaCl, 1 mM EDTA, 1 mM DTT, 10% glycerol and 1% Triton X-100. The mixture was incubated for 1 h at 4°C with gentle rocking. The beads were washed five times with the same ice-cold buffer, resuspended in 30 µl SDS-PAGE sample buffer, incubated 10 min at 65°C, and pelleted for 60 s at 3000 g. The supernatants were then analyzed by SDS-PAGE, the gels were stained with Coomassie blue to visualize GST-fusion proteins, dried and analyzed using a Phosphor-imager (Personal Molecular Imager FX, Biorad) to visualize [^35S]-labelled GASPs. Quantification was performed with the Quantity One software (Biorad). GST-pull down quantification data were analyzed using GraphPad Prism 4.03 (GraphPad Software). Quantifications presented are means of at least three independent experiments.

GST-fused CALCR C-tail = test: GST-pull down, CALCR C-tail
Protocol: (§4) cDNAs encoding the cytoplasmic C-tail of 14 GPCRs and 2 one-transmembrane receptors were cloned into the pGEX-2T prokaryotic expression vector downstream the GST sequence. […]
as §3, with “The mixture was incubated for 1 h at 4°C with gentle rocking. The beads were washed five times with the same ice-cold buffer, resuspended in 30 µl SDS-PAGE sample buffer, incubated 10 min at 65°C, and pelleted for 60 s at 3000 g.” left out

GST-fused M1 C-tail = test: GST-pull down, M1 C-tail; details: for interaction of truncated GASP-1 with M1 C-tail (words): compared with full-length GASP-1
From the text: as §1, §2, §3

GST-fused FZ4 C-tail = test: GST-pull down, FZ4 C-tail; details: strong = >10% of GASP input
Protocol: as §4
as §3, with “The mixture was incubated for 1 h at 4°C with gentle rocking. The beads were washed five times with the same ice-cold buffer, resuspended in 30 µl SDS-PAGE sample buffer, incubated 10 min at 65°C, and pelleted for 60 s at 3000 g.” left out

[1] = system: GST-fused TGFβ (type III transforming growth factor β receptor) C-tail; test: GST-pull down, TGFβ C-tail; details: for interaction with TGFβ C-tail: non-GPCR control
From the text: as §1, §2, §3

[2] = system: GST-fused IGF1 (insulin growth factor I receptor) C-tail; test: GST-pull down, IGF1 C-tail; details: for interaction with IGF1 C-tail: non-GPCR control
From the text: as §1, §2, §3

GST-fused GPCR C-tails = test: GST-pull down, GPCR C-tails; details: for interaction with GPCR C-tails: twelve GPCR C-tails
From the text: as §1, §2
as §3, with “experiments. […]” for “experiments.”

GST-fused TXA2 C-tail = test: GST-pull down, TXA2 C-tail; details: percent of [35S]-GASP input; pH 7.4, 1 h at 4°C; three independent experiments
Protocol: as §4
as §3, with “The mixture was incubated for 1 h at 4°C with gentle rocking. The beads were washed five times with the same ice-cold buffer, resuspended in 30 µl SDS-PAGE sample buffer, incubated 10 min at 65°C, and pelleted for 60 s at 3000 g.” left out

GST-fused DOR C-tail = test: GST-pull down, DOR C-tail
From the text: as §1, §2, §3

[3] = system: GST-fused H2 (histamine H2 receptor) C-tail; test: GST-pull down, H2 C-tail; details: percent of [35S]-GASP input; pH 7.4, 1 h at 4°C; three independent experiments
Protocol: as §4
as §3, with “The mixture was incubated for 1 h at 4°C with gentle rocking. The beads were washed five times with the same ice-cold buffer, resuspended in 30 µl SDS-PAGE sample buffer, incubated 10 min at 65°C, and pelleted for 60 s at 3000 g.” left out

[4] = percent of [35S]-GASP input, pH 7.4, 1 h at 4°C, three independent experiments
[5] = percent of [35S]-GASP input, controls

B1: mutant 470–838: truncated GASP-2 corresponding to the C-terminal domain (protein)
chain: KVSDRFRDAAEELNASSRPQTWDEVTVEFKPGLFHGVGFRSTSPFGIPEEASEMLEAKPKNLELSPEGEEQESLLQPDQPSPEFTFQYDPSYRSVREIREHLRARESAESESWSCSCIQCELKIGSEEFEEFLLLMDKIRDPFIHEISKIAMGMRSASQFTRDFIRDSGVVSLIETLLNYPSSRVRTSFLENMIHMAPPYPNLNMIETFICQVCEETLAHSVDSLEQLTGIRMLRHLTMTIDYHTLIANYMSGFLSLLTTANARTKFHVLKMLLNLSENPAVAKKLFSAKALSIFVGLFNIEETNDNIQIVIKMFQNISNIIKSGKMSLIDDDFSLEPLISAFREFEELAKQLQAQIDNQNDPEVGQQS
modifications: [35S]-methionine labelled
interaction of GASP-2 mutants with ADRB1 C-tail (GST-fused ADRB1 C-tail; compared to wild-type GASP-2): almost no interaction
interaction of GASP-2 mutants with CALCR C-tail (GST-fused CALCR C-tail; compared to wild-type GASP-2): almost no interaction
interaction of GASP-2 mutants with M1 C-tail (GST-fused M1 C-tail; compared to wild-type GASP-2): almost no interaction

interaction with TGFβ C-tail [1]: no interaction was detected
interaction with IGF1 C-tail [2]: no interaction was detected
B2: GASP-3: member of the GASP family, two GASP motifs (protein)
chain: MAGTKNKTRAQAKTEKKAAIQAKAGAEREATGVVRPVAKTRAKAKAKTGSKTDAVAEMKAVSKNKVVAETKEGALSEPKTLGKAMGDFTPKAGNESTSSTCKNEAGTDAWFWAGEEATINSWFWNGEEAGNSFSTKNDKPEIGAQVCAEELEPAAGADCKPRSGAEEEEEENVIGNWFWEGDDTSFDPNPKPVSRIVKPQPVYEINEKNRPKDWSEVTIWPNAPAVTPAVLGFRSQAPSEASPPSYIVLASAEENACSLPVATACRPSRNTRSCSQPIPECRFDSDPCIQTIDEIRRQIRIREVNGIKPFACPCKMECYMDSEEFEKLVSLLKSTTDPLIHKIARIAMGVHNVHPFAQEFINEVGVVTLIESLLSFPSPEMRKKTVITLNPPSGDERQRKIELHVKHMCKETMSFPLNSPGQQSGLKILGQLTTDFVHHYIVANYFSELFHLLSSGNCKTRNLVLKLLLNMSENPTAARDMINMKALAALKLIFNQKEAKANLVSGVAIFINIKEHIRKGSIVVVDHLSYNTLMAIFREVKEIIETM
modifications: [35S]-methionine labelled
interaction with FZ4 C-tail (GST-fused FZ4 C-tail): strong interaction
GASP input retained by GPCR C-tails (GST-fused GPCR C-tails; percent of GASP input): > 10%
interaction with GPCR C-tails (GST-fused GPCR C-tails): medium to strong interactions

GASP input retained by H2 C-tail [3]: around 2%
interaction with TGFβ C-tail [1]: No interaction was detected
GASP input retained by control TGFβ C-tail [1, 5]: less than 1%
interaction with IGF1 C-tail [2]: No interaction was detected
GASP input retained by control IGF1 C-tail [2, 5]: less than 1%
B3: GASP-6: member of the second GASP subfamily, without GASP motif (protein)
chain: MGYARKVGWVTAGLVIGAGACYCIYRLTRGRKQNKEKMAEGGSGDVDDAGDCSGARYNDWSDDDDDSNESKSIVWYPPWARIGTEAGTRARARARARATRARRAVQKRASPNSDDTVLSPQELQKVLCLVEMSEKPYILEAALIALGNNAAYAFNRDIIRDLGGLPIVAKILNTRDPIVKEKALIVLNNLSVNAENQRRLKVYMNQVCDDTITSRLNSSVQLAGLRLLTNMTVTNEYQHMLANSISDFFRLFSAGNEETKLQVLKLLLNLAENPAMTRELLRAQVPSSLGSLFNKKENKEVILKLLVIFENINDNFKWEENEPTQNQFGEGSLFFFLKEFQVCADKVLGIESHHDFLVKVKVGKFMAKLAEHMFPKSQE
modifications: [35S]-methionine labelled
GASP input retained by ADRB1 C-tail (GST-fused ADRB1 C-tail; [4]): around 2%
GASP input retained by CALCR C-tail (GST-fused CALCR C-tail; [4]): around 2%
GASP input retained by TXA2 C-tail (GST-fused TXA2 C-tail): around 2%
GASP input retained by M1 C-tail (GST-fused M1 C-tail; [4]): around 2%
GASP input retained by DOR C-tail (GST-fused DOR C-tail; [4]): around 2%
interaction with GPCR C-tails (GST-fused GPCR C-tails): very weak interactions

B4: mutant 1025–1395: truncated mutant of GASP-1 corresponding to the conserved C-terminal domain (protein)
chain: ICRSTCSVEQEPDPSRRPQSWEEVTVQFKPGPWGRVGFPSISPFRFPKEAASLFCEMFGGKPRNMVLSPEGEDQESLLQPDQPSPEFPFQYDPSYRSVQEIREHLRAKESTEPESSSCNCIQCELKIGSEEFEELLLLMEKIRDPFIHEISKIAMGMRSASQFTRDFIRDSGVVSLIETLLNYPSSRVRTSFLENMIRMAPPYPNLNIIQTYICKVCEETLAYSVDSPEQLSGIRMIRHLTTTTDYHTLVANYMSGFLSLLATGNAKTRFHVLKMLLNLSENLFMTKELLSAEAVSEFIGLFNREETNDNIQIVLAIFENIGNNIKKETVFSDDDFNIEPLISAFHKVEKFAKELQGKTDNQNDPEGDQEN
modifications: [35S]-methionine labelled
interaction of truncated GASP-1 with ADRB1 C-tail (words) (GST-fused ADRB1 C-tail): did not display detectable interactions
interaction of truncated GASP-1 with ADRB1 C-tail (words) (GST-fused ADRB1 C-tail; listed as 1025–1395): no significant interaction
interaction of truncated GASP-1 with M1 C-tail (words) (GST-fused M1 C-tail): did not display detectable interactions
interaction of truncated GASP-1 with M1 C-tail (words) (GST-fused M1 C-tail; listed as 1025–1395): no significant interaction
interaction of truncated GASP-1 with DOR C-tail (GST-fused DOR C-tail; compared with full-length GASP-1): interacted only weakly
interaction with DOR C-tail relative to full-length GASP-1 (GST-fused DOR C-tail; percent of full-length GASP-1 interaction, three independent experiments): 25%
